The values below come from PMC5409509.

The target of the experiment is Yeast wild-type Mlh1-Mlh3 (yeast (S. cerevisiae)) (UniProt P38920).

B1: Yeast wild-type Mlh1-Mlh3 (complex)
chain 1: MSLRIKALDASVVNKIAAGEIIISPVNALKEMMENSIDANATMIDILVKEGGIKVLQITDNGSGINKADLPILCERFTTSKLQKFEDLSQIQTYGFRGEALASISHVARVTVTTKVKEDRCAWRVSYAEGKMLESPKPVAGKDGTTILVEDLFFNIPSRLRALRSHNDEYSKILDVVGRYAIHSKDIGFSCKKFGDSNYSLSVKPSYTVQDRIRTVFNKSVASNLITFHISKVEDLNLESVDGKVCNLNFISKKSISPIFFINNRLVTCDLLRRALNSVYSNYLPKGNRPFIYLGIVIDPAAVDVNVHPTKREVRFLSQDEIIEKIANQLHAELSAIDTSRTFKASSISTNKPESLIPFNDTIESDRNRKSLRQAQVVENSYTTANSQLRKAKRQENKLVRIDASQAKITSFLSSSQQFNFEGSSTKRQLSEPKVTNVSHSQEAEKLTLNESEQPRDANTINDNDLKDQPKKKQKLGDYKVPSIADDEKNALPISKDGYIRVPKERVNVNLTSIKKLREKVDDSIHRELTDIFANLNYVGVVDEERRLAAIQHDLKLFLIDYGSVCYELFYQIGLTDFANFGKINLQSTNVSDDIVLYNLLSEFDELNDDASKEKIISKIWDMSSMLNEYYSIELVNDGLDNDLKSVKLKSLPLLLKGYIPSLVKLPFFIYRLGKEVDWEDEQECLDGILREIALLYIPDMVPKVDTSDASLSEDEKAQFINRKEHISSLLEHVLFPCIKRRFLAPRHILKDVVEIANLPDLYKVFERC
chain 2: MSQHIRKLDSDVSERLKSQACTVSLASAVREIVQNSVDAHATTIDVMIDLPNLSFAVYDDGIGLTRSDLNILATQNYTSKIRKMNDLVTMKTYGYRGDALYSISNVSNLFVCSKKKDYNSAWMRKFPSKSVMLSENTILPIDPFWKICPWSRTKSGTVVIVEDMLYNLPVRRRILKEEPPFKTFNTIKADMLQILVMHPMISLNVQYTDKLRINTEVLFRSKNITEGLTKHQQMSQVLRNVFGAIIPPDMLKKVSLKFNEYQIEGIISKMPVGLKDLQFIYINGRRYADSAFQGYVDSLFQAQDFGEKGMSLLKTKSVGKPYRSHPVFILDVRCPQTIDDLLQDPAKKIVKPSHIRTIEPLIVKTIRSFLTFQGYLTPDKSDSSFEIVNCSQKTATLPDSRIQISKRNQVLNSKMKIARINSYIGKPAVNGCRINNSTINYEKIKNIRIDGQKSRLRNKLSSRPYDSGFTEDYDSIGKTITDFSISRSVLAKYEVINQVDKKFILIRCLDQSIHNCPLLVLVDQHACDERIRLEELFYSLLTEVVTGTFVARDLKDCCIEVDRTEADLFKHYQSEFKKWGIGYETIEGTMETSLLEIKTLPEMLTSKYNGDKDYLKMVLLQHAHDLKDFKKLPMDLSHFENYTSVDKLYWWKYSSCVPTVFHEILNSKACRSAVMFGDELTRQECIILISKLSRCHNPFECAHGRPSMVPIAELK
As for B1, the endonuclease activity on circular dsDNA: ratio of Mlh1-Mlh3 to 2.7 kb plasmid at the optimum of activity (Mlh1-Mlh3 per 2.7 kb plasmid) worked out at 100.
